Data: patent US20200095339A1 (IMMUNEONCO BIOPHARMACEUTICALS SHANGHAI, published 2020)

How the values were obtained:
human CD47 [1] = target: T1, human CD47 (human, UniProt Q08722 19-323); test: FACS competition on Jurkat cells; competitor 25 nM biotin-SIRPα-Fc, detected with FITC-streptavidin
T1 construct: whole, on cells; Endogenous CD47 on tumor cell lines
Experimental: (§1) The mixture was cultured at RT for 30 minutes, and then incubated with Jurkat cells at RT for 1 hour. After washes, the cells was added with fluorescence labeled streptavidin (FITC-Strep) and then incubated at RT for 1 hour.

human CD47 [2] = target: T1, human CD47; test: flow cytometry on Jurkat cells (CD20-CD47+)
human CD20 [3] = target: T2, human CD20 (human, UniProt P11836 1-297); test: cell-based or functional assay
T2 sequence (looked up): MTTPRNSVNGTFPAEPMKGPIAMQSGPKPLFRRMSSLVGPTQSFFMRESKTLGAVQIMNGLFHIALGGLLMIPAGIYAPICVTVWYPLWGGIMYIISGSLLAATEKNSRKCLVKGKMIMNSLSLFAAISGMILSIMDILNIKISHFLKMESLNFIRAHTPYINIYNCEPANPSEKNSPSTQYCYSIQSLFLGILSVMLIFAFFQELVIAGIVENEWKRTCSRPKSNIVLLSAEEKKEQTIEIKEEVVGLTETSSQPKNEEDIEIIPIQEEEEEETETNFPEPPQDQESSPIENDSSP

human CD20 [4] = target: T2, human CD20; test: flow cytometry on Raji-CD47KO cells (CD20+CD47-)
human CD47 [5] = target: T1, human CD47; test: cell-based or functional assay
human CD47 [6] = target: T1, human CD47; test: FACS competition on Jurkat cells against 25 nM labelled SIRPα-Fc. Number printed in the IC50 table although the Rituximab curve shows no inhibition (see non_binding). The table prints no unit, nM is taken from the concentration axis
Experimental: as §1

B1: CD20mAb-SD1 (bispecific antibody, human IgG1, kappa)
heavy: not shown
light: QIVLSQSPAILSASPGEKVTMTCRASSSVSYIHWFQQKPGSSPKPWIYATSNLASGVPVRFSGSGSGTSYSLTISRVEAEDAATYYCQQWTSNPPTFGGGTKHELKRTVAAPSVFIFPPSDEQLKSGTASVVCLLNNFYPREAKVQWKVDNALQSGNSQESVTEQDSKDSTYSLSSTLTLSKADYEKHKVYACEVTHQGLSSPVTKSFNRGEC
notes: Four chains, two heavy and two light, joined by disulfide bonds; Expressed in CHO cells; also called recombinant bi-functional fusion protein; CD20Ab-SD1
EC50 (human CD47 [1]): 476 nM | EC50 (human CD47 [2]): 2.72 nM | ADCC EC50, Raji target cells, NK92MI-CD16a effector cells (human CD20 [3]): 0.14 ng/mL | ADCC EC50, Raji-CD47KO target cells, NK92MI-CD16a effector cells (human CD20 [3]): 0.14 ng/mL | CDC EC50, Raji target cells, rabbit complement (human CD20 [3]): 11 nM | EC50 (human CD20 [4]): 0.08 nM

B2: SD1-CD20mAb (bispecific antibody, human IgG1, kappa)
heavy: not shown
light: B1 light
notes: Four chains, two heavy and two light, joined by disulfide bonds; Expressed in CHO cells; also called recombinant bi-functional fusion protein
EC50 (human CD47 [1]): 19.7 nM | EC50 (human CD47 [2]): 0.09 nM | phagocytosis of HL-60 cells by mouse macrophage cell line Ana-1, EC50 (human CD47 [5]): 300 ng/mL | ADCC EC50, Raji target cells, NK92MI-CD16a effector cells (human CD20 [3]): 0.15 ng/mL | ADCC EC50, Raji-CD47KO target cells, NK92MI-CD16a effector cells (human CD20 [3]): 0.1 ng/mL | CDC EC50, Raji target cells, rabbit complement (human CD20 [3]): 3.36 nM | EC50 (human CD20 [4]): 0.4 nM

B3: Rituximab (antibody, V domains shown)
VH: QVQLQQPGAELVKPGASVKMSCKASGYTFTSYNMHWVKQTPGRGLEWIGAIYPGNGDTSYNQKFKGKATLTADKSSSTAYMQLSSLTSEDSAVYYCARSTYYGGDWYFNVWGAGTTVTVSA
VL: QIVLSQSPAILSASPGEKVTMTCRASSSVSYIHWFQQKPGSSPKPWIYATSNLASGVPVRFSGSGSGTSYSLTISRVEAEDAATYYCQQWTSNPPTFGGGTKLEIK
notes: Comparator antibody; also called Rituxan
IC50 (human CD47 [6]): 7.19 nM | ADCC EC50, Raji target cells, NK92MI-CD16a effector cells (human CD20 [3]): 3.82 ng/mL | ADCC EC50, Raji-CD47KO target cells, NK92MI-CD16a effector cells (human CD20 [3]): 1.13 ng/mL | EC50 (human CD20 [4]): 0.06 nM
